Source: US12679878B2, “CRF2 receptor agonists and their use in therapy” (SANOFI, priority 2020, dated 2026)
Starred links: 1 amine or outer side, 2 acyl side, 3 side chain; linkers in the order of their positions; H or OH if unused. Non-standard residues stand in square brackets, D forms with d. Groups on a side chain read outwards from the residue. No end group written: not given here. *: point of attachment. γGlu = O=C(O)[C@H](CCC(=O)[*:2])N[*:1]; Palmitoyl = CCCCCCCCCCCCCCCC(=O)*; AEEA = NCCOCCOCC(=O)O; Aib = CC(C)(N)C(=O)O

B1: peptide of SEQ ID NO: 215 (peptide)
peptide: IVLSLD[dV]PIGLK([γGlu-Palmitoyl])QILLKQERQKK[Aib]REQAETNKQILAQV-NH2
modifications: N-terminus assumed
SMILES: CCCCCCCCCCCCCCCC(=O)N[C@@H](CCC(=O)NCCCC[C@H](NC(=O)[C@H](CC(C)C)NC(=O)CNC(=O)[C@@H](NC(=O)[C@@H]1CCCN1C(=O)[C@H](NC(=O)[C@H](CC(=O)O)NC(=O)[C@H](CC(C)C)NC(=O)[C@H](CO)NC(=O)[C@H](CC(C)C)NC(=O)[C@@H](NC(=O)[C@@H](N)[C@@H](C)CC)C(C)C)C(C)C)[C@@H](C)CC)C(=O)N[C@@H](CCC(N)=O)C(=O)N[C@H](C(=O)N[C@@H](CC(C)C)C(=O)N[C@@H](CC(C)C)C(=O)N[C@@H](CCCCN)C(=O)N[C@@H](CCC(N)=O)C(=O)N[C@@H](CCC(=O)O)C(=O)N[C@@H](CCCNC(=N)N)C(=O)N[C@@H](CCC(N)=O)C(=O)N[C@@H](CCCCN)C(=O)N[C@@H](CCCCN)C(=O)NC(C)(C)C(=O)N[C@@H](CCCNC(=N)N)C(=O)N[C@@H](CCC(=O)O)C(=O)N[C@@H](CCC(N)=O)C(=O)N[C@@H](C)C(=O)N[C@@H](CCC(=O)O)C(=O)N[C@H](C(=O)N[C@@H](CC(N)=O)C(=O)N[C@@H](CCCCN)C(=O)N[C@@H](CCC(N)=O)C(=O)N[C@H](C(=O)N[C@@H](CC(C)C)C(=O)N[C@@H](C)C(=O)N[C@@H](CCC(N)=O)C(=O)N[C@H](C(N)=O)C(C)C)[C@@H](C)CC)[C@@H](C)O)[C@@H](C)CC)C(=O)O
B2: peptide of SEQ ID NO: 213 (peptide)
peptide: IVLSLD[dV]PIKLK([γGlu-Palmitoyl])QILLKQERQKKQREKAEKNKQILAQV-NH2
modifications: N-terminus assumed
SMILES: CCCCCCCCCCCCCCCC(=O)N[C@@H](CCC(=O)NCCCC[C@H](NC(=O)[C@H](CC(C)C)NC(=O)[C@H](CCCCN)NC(=O)[C@@H](NC(=O)[C@@H]1CCCN1C(=O)[C@H](NC(=O)[C@H](CC(=O)O)NC(=O)[C@H](CC(C)C)NC(=O)[C@H](CO)NC(=O)[C@H](CC(C)C)NC(=O)[C@@H](NC(=O)[C@@H](N)[C@@H](C)CC)C(C)C)C(C)C)[C@@H](C)CC)C(=O)N[C@@H](CCC(N)=O)C(=O)N[C@H](C(=O)N[C@@H](CC(C)C)C(=O)N[C@@H](CC(C)C)C(=O)N[C@@H](CCCCN)C(=O)N[C@@H](CCC(N)=O)C(=O)N[C@@H](CCC(=O)O)C(=O)N[C@@H](CCCNC(=N)N)C(=O)N[C@@H](CCC(N)=O)C(=O)N[C@@H](CCCCN)C(=O)N[C@@H](CCCCN)C(=O)N[C@@H](CCC(N)=O)C(=O)N[C@@H](CCCNC(=N)N)C(=O)N[C@@H](CCC(=O)O)C(=O)N[C@@H](CCCCN)C(=O)N[C@@H](C)C(=O)N[C@@H](CCC(=O)O)C(=O)N[C@@H](CCCCN)C(=O)N[C@@H](CC(N)=O)C(=O)N[C@@H](CCCCN)C(=O)N[C@@H](CCC(N)=O)C(=O)N[C@H](C(=O)N[C@@H](CC(C)C)C(=O)N[C@@H](C)C(=O)N[C@@H](CCC(N)=O)C(=O)N[C@H](C(N)=O)C(C)C)[C@@H](C)CC)[C@@H](C)CC)C(=O)O
B3: peptide of SEQ ID NO: 216 (peptide)
peptide: IVLSLD[dV]PIGLK([AEEA-AEEA-γGlu-Palmitoyl])QILLKQERQKK[Aib]REQAETNKQILAQV-NH2
modifications: N-terminus assumed
SMILES: CCCCCCCCCCCCCCCC(=O)N[C@@H](CCC(=O)NCCOCCOCC(=O)NCCOCCOCC(=O)NCCCC[C@H](NC(=O)[C@H](CC(C)C)NC(=O)CNC(=O)[C@@H](NC(=O)[C@@H]1CCCN1C(=O)[C@H](NC(=O)[C@H](CC(=O)O)NC(=O)[C@H](CC(C)C)NC(=O)[C@H](CO)NC(=O)[C@H](CC(C)C)NC(=O)[C@@H](NC(=O)[C@@H](N)[C@@H](C)CC)C(C)C)C(C)C)[C@@H](C)CC)C(=O)N[C@@H](CCC(N)=O)C(=O)N[C@H](C(=O)N[C@@H](CC(C)C)C(=O)N[C@@H](CC(C)C)C(=O)N[C@@H](CCCCN)C(=O)N[C@@H](CCC(N)=O)C(=O)N[C@@H](CCC(=O)O)C(=O)N[C@@H](CCCNC(=N)N)C(=O)N[C@@H](CCC(N)=O)C(=O)N[C@@H](CCCCN)C(=O)N[C@@H](CCCCN)C(=O)NC(C)(C)C(=O)N[C@@H](CCCNC(=N)N)C(=O)N[C@@H](CCC(=O)O)C(=O)N[C@@H](CCC(N)=O)C(=O)N[C@@H](C)C(=O)N[C@@H](CCC(=O)O)C(=O)N[C@H](C(=O)N[C@@H](CC(N)=O)C(=O)N[C@@H](CCCCN)C(=O)N[C@@H](CCC(N)=O)C(=O)N[C@H](C(=O)N[C@@H](CC(C)C)C(=O)N[C@@H](C)C(=O)N[C@@H](CCC(N)=O)C(=O)N[C@H](C(N)=O)C(C)C)[C@@H](C)CC)[C@@H](C)O)[C@@H](C)CC)C(=O)O
B4: peptide of SEQ ID NO: 211 (peptide)
peptide: IVLSLD[dV]PIKLK([AEEA-AEEA-γGlu-γGlu-Palmitoyl])QILLKQERQKK[Aib]RQKAEKNKQILAQV-NH2
modifications: N-terminus assumed
SMILES: CCCCCCCCCCCCCCCC(=O)N[C@@H](CCC(=O)N[C@@H](CCC(=O)NCCOCCOCC(=O)NCCOCCOCC(=O)NCCCC[C@H](NC(=O)[C@H](CC(C)C)NC(=O)[C@H](CCCCN)NC(=O)[C@@H](NC(=O)[C@@H]1CCCN1C(=O)[C@H](NC(=O)[C@H](CC(=O)O)NC(=O)[C@H](CC(C)C)NC(=O)[C@H](CO)NC(=O)[C@H](CC(C)C)NC(=O)[C@@H](NC(=O)[C@@H](N)[C@@H](C)CC)C(C)C)C(C)C)[C@@H](C)CC)C(=O)N[C@@H](CCC(N)=O)C(=O)N[C@H](C(=O)N[C@@H](CC(C)C)C(=O)N[C@@H](CC(C)C)C(=O)N[C@@H](CCCCN)C(=O)N[C@@H](CCC(N)=O)C(=O)N[C@@H](CCC(=O)O)C(=O)N[C@@H](CCCNC(=N)N)C(=O)N[C@@H](CCC(N)=O)C(=O)N[C@@H](CCCCN)C(=O)N[C@@H](CCCCN)C(=O)NC(C)(C)C(=O)N[C@@H](CCCNC(=N)N)C(=O)N[C@@H](CCC(N)=O)C(=O)N[C@@H](CCCCN)C(=O)N[C@@H](C)C(=O)N[C@@H](CCC(=O)O)C(=O)N[C@@H](CCCCN)C(=O)N[C@@H](CC(N)=O)C(=O)N[C@@H](CCCCN)C(=O)N[C@@H](CCC(N)=O)C(=O)N[C@H](C(=O)N[C@@H](CC(C)C)C(=O)N[C@@H](C)C(=O)N[C@@H](CCC(N)=O)C(=O)N[C@H](C(N)=O)C(C)C)[C@@H](C)CC)[C@@H](C)CC)C(=O)O)C(=O)O

Target: human corticotropin-releasing factor 2α (CRF2α receptor) (human), Q13324
Sequence (Q13324 20-411): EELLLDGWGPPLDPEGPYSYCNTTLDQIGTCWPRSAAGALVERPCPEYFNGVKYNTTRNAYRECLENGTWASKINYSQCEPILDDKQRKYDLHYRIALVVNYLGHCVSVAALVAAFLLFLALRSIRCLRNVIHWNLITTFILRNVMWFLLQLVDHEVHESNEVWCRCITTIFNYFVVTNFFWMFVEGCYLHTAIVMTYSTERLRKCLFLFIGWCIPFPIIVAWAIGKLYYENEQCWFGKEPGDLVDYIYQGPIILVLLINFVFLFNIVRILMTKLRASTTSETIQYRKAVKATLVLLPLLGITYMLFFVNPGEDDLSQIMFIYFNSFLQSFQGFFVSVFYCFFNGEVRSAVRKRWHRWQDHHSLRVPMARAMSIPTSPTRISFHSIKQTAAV
Assay: cell-based or functional assay

| Binder | EC50 [nM], 0% HSA (cAMP, HTRF) [nM] |
| --- | --- |
| B1 | 0.15 |
| B2 | 4.48 |
| B3 | 0.19 |
| B4 | 0.94 |
